B1: FBXO3 (parent)
chain: HDPLWRRHCKKYWLISEEEKTQKN
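Note: lentivirally expressed fusions sorted by FACS into six bins by GFP to DsRed ratio, PSI derived from sequencing read proportions per bin multiplied by bin number.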

In this data set the parent is B1. The data set can be described thus: protein stability index of a GFP-peptide fusion (GPS, HEK-293T) (PSI 1-6); higher = more stable. The conditions noted are these: c terminus: a fixed tail appended.
Consider HDPLWRFHCKKYWLISEEEKTQKN [R7F], for which the protein stability index was 2.21.

HDPLWRKHCKKYWLISEEEKTQKN [R7K]: the protein stability index was determined as 3.22. As for HDPLWRMHCKKYWLISEEEKTQKN [R7M], the protein stability index was determined as 2.86. Under HDPLWRQHCKKYWLISEEEKTQKN [R7Q] stands 3.54; under HDPLWRPHCKKYWLISEEEKTQKN [R7P], 4.42; under HDPLWRLHCKKYWLISEEEKTQKN [R7L], 3.14. In the case of HDPLWRSHCKKYWLISEEEKTQKN [R7S], the protein stability index amounted to 3.46. Under HDPLWRGHCKKYWLISEEEKTQKN [R7G] stands 4.02. Under HDPLWREHCKKYWLISEEEKTQKN [R7E] stands 3.31. Under HDPLWRHHCKKYWLISEEEKTQKN [R7H] stands 3.02; under HDPLWRNHCKKYWLISEEEKTQKN [R7N], 3.46; under HDPLWRIHCKKYWLISEEEKTQKN [R7I], 3.14.

For the variant HDPLWRYHCKKYWLISEEEKTQKN [R7Y], the protein stability index came to 2. Under HDPLWRCHCKKYWLISEEEKTQKN [R7C] stands 2.95; under HDPLWRVHCKKYWLISEEEKTQKN [R7V], 2.71.

Regarding HDPLWRAHCKKYWLISEEEKTQKN [R7A], the protein stability index stood at 3.39.

Consider HDPLWRDHCKKYWLISEEEKTQKN [R7D], for which the protein stability index is 3.8.

HDPLWRWHCKKYWLISEEEKTQKN [R7W]: the protein stability index came out at 2.68. Under HDPLWRTHCKKYWLISEEEKTQKN [R7T] stands 3.53. Turning to HDPRWRRHCKKYWLISEEEKTQKN [L4R], the protein stability index was 2.33. As to HDPFWRRHCKKYWLISEEEKTQKN [L4F], the protein stability index was determined as 3.52.

As for HDPCWRRHCKKYWLISEEEKTQKN [L4C], the protein stability index is 3.51. HDPKWRRHCKKYWLISEEEKTQKN [L4K]: the protein stability index was 2.95. Under HDPEWRRHCKKYWLISEEEKTQKN [L4E] stands 2.9.

Regarding HDPMWRRHCKKYWLISEEEKTQKN [L4M], the protein stability index came to 3.26. Under HDPSWRRHCKKYWLISEEEKTQKN [L4S] stands 3.87; under HDPVWRRHCKKYWLISEEEKTQKN [L4V], 3.32; under HDPNWRRHCKKYWLISEEEKTQKN [L4N], 3.52. Turning to HDPWWRRHCKKYWLISEEEKTQKN [L4W], the protein stability index stood at 3.63.

In the case of HDPQWRRHCKKYWLISEEEKTQKN [L4Q], the protein stability index worked out at 3.88.

As to HDPGWRRHCKKYWLISEEEKTQKN [L4G], the protein stability index was 3.75. Under HDPTWRRHCKKYWLISEEEKTQKN [L4T] stands 4.35; under HDPHWRRHCKKYWLISEEEKTQKN [L4H], 3.45; under HDPYWRRHCKKYWLISEEEKTQKN [L4Y], 3.45.

For HDPPWRRHCKKYWLISEEEKTQKN [L4P], the protein stability index worked out at 3.73. Under HDPAWRRHCKKYWLISEEEKTQKN [L4A] stands 2.92; under HDPIWRRHCKKYWLISEEEKTQKN [L4I], 2.93.

HDPDWRRHCKKYWLISEEEKTQKN [L4D]: the protein stability index is 4.6.

HDPLWPRHCKKYWLISEEEKTQKN [R6P]: the protein stability index came out at 1.82. Under HDPLWERHCKKYWLISEEEKTQKN [R6E] stands 4.24; under HDPLWLRHCKKYWLISEEEKTQKN [R6L], 2.89; under HDPLWDRHCKKYWLISEEEKTQKN [R6D], 4.04. Under HDPLWHRHCKKYWLISEEEKTQKN [R6H] stands 3.51; under HDPLWNRHCKKYWLISEEEKTQKN [R6N], 3.85; under HDPLWYRHCKKYWLISEEEKTQKN [R6Y], 2.7. For HDPLWARHCKKYWLISEEEKTQKN [R6A], the protein stability index was 2.99. Under HDPLWQRHCKKYWLISEEEKTQKN [R6Q] stands 3.54. In the case of HDPLWTRHCKKYWLISEEEKTQKN [R6T], the protein stability index worked out at 3.43.

On to HDPLWCRHCKKYWLISEEEKTQKN [R6C], for which the protein stability index came to 3.35. Under HDPLWIRHCKKYWLISEEEKTQKN [R6I] stands 2.58; under HDPLWKRHCKKYWLISEEEKTQKN [R6K], 3.32; under HDPLWVRHCKKYWLISEEEKTQKN [R6V], 2.98. For HDPLWSRHCKKYWLISEEEKTQKN [R6S], the protein stability index turned out to be 3.69. Consider HDPLWFRHCKKYWLISEEEKTQKN [R6F], for which the protein stability index worked out at 2.84. As to HDPLWGRHCKKYWLISEEEKTQKN [R6G], the protein stability index came out at 3.6.

For HDPLWWRHCKKYWLISEEEKTQKN [R6W], the protein stability index was 2.46.

For HDPLWMRHCKKYWLISEEEKTQKN [R6M], the protein stability index was found to be 3.58. Under HDPLIRRHCKKYWLISEEEKTQKN [W5I] stands 3.99. Under HDPLYRRHCKKYWLISEEEKTQKN [W5Y] stands 4.71; under HDPLRRRHCKKYWLISEEEKTQKN [W5R], 3.42. Under HDPLNRRHCKKYWLISEEEKTQKN [W5N] stands 3.89; under HDPLLRRHCKKYWLISEEEKTQKN [W5L], 4.35; under HDPLQRRHCKKYWLISEEEKTQKN [W5Q], 4.25. Consider HDPLHRRHCKKYWLISEEEKTQKN [W5H], for which the protein stability index stood at 3.94. Under HDPLFRRHCKKYWLISEEEKTQKN [W5F] stands 4.56; under HDPLPRRHCKKYWLISEEEKTQKN [W5P], 3.78; under HDPLMRRHCKKYWLISEEEKTQKN [W5M], 4.39. As for HDPLERRHCKKYWLISEEEKTQKN [W5E], the protein stability index was 4.07. Under HDPLGRRHCKKYWLISEEEKTQKN [W5G] stands 3.96; under HDPLVRRHCKKYWLISEEEKTQKN [W5V], 3.81. As for HDPLKRRHCKKYWLISEEEKTQKN [W5K], the protein stability index turned out to be 3.62. Under HDPLDRRHCKKYWLISEEEKTQKN [W5D] stands 4.18. HDPLTRRHCKKYWLISEEEKTQKN [W5T]: the protein stability index came to 4.76.

For HDPLARRHCKKYWLISEEEKTQKN [W5A], the protein stability index was 4.33. Under HDPLSRRHCKKYWLISEEEKTQKN [W5S] stands 4.08; under HDPLCRRHCKKYWLISEEEKTQKN [W5C], 3.77. Consider HDPLWRRTCKKYWLISEEEKTQKN [H8T], for which the protein stability index was 2.79.

On to HDPLWRRPCKKYWLISEEEKTQKN [H8P], for which the protein stability index worked out at 3.4. On to HDPLWRRRCKKYWLISEEEKTQKN [H8R], for which the protein stability index worked out at 3. With HDPLWRRCCKKYWLISEEEKTQKN [H8C], the protein stability index was found to be 2.03. Under HDPLWRRMCKKYWLISEEEKTQKN [H8M] stands 2.23.

Take HDPLWRRVCKKYWLISEEEKTQKN [H8V]: the protein stability index was 2.56. With HDPLWRRDCKKYWLISEEEKTQKN [H8D], the protein stability index amounted to 4.29.

As for HDPLWRRKCKKYWLISEEEKTQKN [H8K], the protein stability index is 2.89. As to HDPLWRRLCKKYWLISEEEKTQKN [H8L], the protein stability index came to 1.88. For HDPLWRRFCKKYWLISEEEKTQKN [H8F], the protein stability index came out at 1.73. Under HDPLWRRQCKKYWLISEEEKTQKN [H8Q] stands 3.72; under HDPLWRRWCKKYWLISEEEKTQKN [H8W], 1.88.

Consider HDPLWRRYCKKYWLISEEEKTQKN [H8Y], for which the protein stability index was 2.2.

Consider HDPLWRRNCKKYWLISEEEKTQKN [H8N], for which the protein stability index was determined as 3.15. Under HDPLWRRACKKYWLISEEEKTQKN [H8A] stands 2.63; under HDPLWRRICKKYWLISEEEKTQKN [H8I], 1.63. As for HDPLWRRECKKYWLISEEEKTQKN [H8E], the protein stability index came out at 3.63. Under HDPLWRRGCKKYWLISEEEKTQKN [H8G] stands 3.31.
